# Experiment: soluble on expression in E. coli; label from the status in PepcDB or PDB records
row,Sequence,soluble on expression in E. coli
1,MGSDKIHHHHHHERHEFIIEVVGNAYLDDVMDWYQPSYGDYLVQAHPVIVLYYPDESYAYYERATFYEQYNDFVAAAGVIVDTADLKNDLGRIWNSYYPIYDVDVWWQADREEWQARVKGLTRDVNITTFFVVTFNGRDNYCEVVDIKDEGEIYLDNNGVYHLGPLSGVDGFAAFVQENPSRLTLESNTKILGAEVRWIK,not soluble
2,MGDYENVLMVKPKVFVYRIPPIGTSGHKAADWNLDSPAWTGRMRLVAIGKRLEMRLEDGETCDLYAKCPIDAHPGNAIEAVSDSSRYFVIRLQNDNGQQAFVGCGFQERGDAFDFNVTLQDHFRYIERSAELEKQDLSAGPSLDLAFKEGQTISINIGKKDKSAVSRPRPAPGASTGGLVPLLPPPPGAGSMIRNSRPSTTTTTASSSLSSAFAAPPPAPSSSTSTTATSGNLLDF,not soluble
3,GPLGSMSFTNATFSQVLDDLSARFILNLPAEEQSSVERLCFQIEQAHWFYEDFIRAQNDQLPSLGLRVFSAKLFAHCPLLWKWSKVHEEAFDDFLRYKTRIPVRGAIMLDMSMQQCVLVKGWKASSGWGFPKGKIDKDESDVDCAIREVYEETGFDCSSRINPNEFIDMTIRGQNVRLYIIPGISLDTRFESRTRKEISKIEWHNLMDLPTFKKNKPQTMKNKFYMVIPFLAPLKKWIKKRNIANNTTKEKNISVDVDADASSQLLSLLKS,soluble
4,MSKDTKQEDNAPTPVTTTPMALNPKTVEKTMFVNKEVLPKMKKIDPEEPGHLPLNEKFMKRWLIEGLIGKGGYGEIYLALDVVRGEEVAIKVEPKKRRGKLAKRMILEQHVLAKMQGKPHVPMIYGSGHAEKYNFIIMQILSINVGDIKKSSPNKKLSQCSVGRIIHQVIAALQDLHETGYVHRDVKPANMCFGIFPHSRHTLILLDFGLVRRYKMESGEWREPRLRAGFRGTTRYVSIRVHRRCEQSPYDDLVSVMYTAYELLAGELPWKHLEKSEEVVQLKEVMTENGINPELFQGDKSVLIDFFKQVSEMDPMKEPCYEKLIECIKVLYAPKVLTDPYEWEESSKGQDEVSEENTNSK,soluble
5,MGHHHHHHSHMAEISDLDRQIEQLRRCELIKESEVKALCAKAREILVEESNVQRVDSPVTVCGDIHGQFYDLKELFRVGGDVPETNYLFMGDFVDRGFYSVETFLLLLALKVRYPDRITLIRGNHESRQITQVYGFYDECLRKYGSVTVWRYCTEIFDYLSLSAIIDGKIFCVHGGLSPSIQTLDQIRTIDRKQEVPHDGPMCDLLWSDPEDTTGWGVSPRGAGYLFGSDVVAQFNAANDIDMICRAHQLVMEGYKWHFNETVLTVWSAPNYCYRCGNVAAILELDEHLQKDFIIFEAAPQETRGIPSKKPVADYFL,not soluble
6,MTPSPEASEGPCVSKLRNEPLGALTPYVGVVDGPEVKKSKKIHGGDSAILGTYKMQSRFNRGVLLMVNIMDYPDQNRRRIGAEKDSKSLIHLFQELNFTIFPYGNVNQDQFFKLLTMVTSSSYVQNTECFVMVLMTHGNSVEGKEKVEFRDGSVVDMQKIKDHFQTAKCPYLVNKPKVLMFPFARGDEYDLGHPKNQGNLMEPVYTAQEEKWPDTQTEGIPSPSTNVPSLADTLVCYANTPGYVTHRDLDTGSWYIQKFCQVMADHAHDTDLEDILKKTSEAVGNKRTKKGSMQTGAYDNLGFNKKLYFNPGFFNE,soluble
7,MNNRSAVRILRLPAVIQKTGMARATIYDWLNPKSPRYDATFPKKRMLGVKSVGWIEAEIDEWLSQRCKLILEHHHHHH,not soluble
8,MGCGFSRQHVVKTNVSSFDRELLDLKIQRDSLQQYEQRLSDSLKNYIKLARRLVAENQRQQALVVLQVKHALQKSIEKAQNMRFNLEQVLSEIELKQIETDYVLKLRTGTKLLQSIQKTLSIEEIEHLLEETKEAIEFQNKVTEVLGSFSLMEIDESCEEELEQLETAMFPPVPKRLEKTMTPQVTENMQVKSETAKEYSKQESILLPS,soluble
9,MGSDKIHHHHHHMKKLRVPHRTKSARVVQELVRLAAGLAASGSRVEDAFWENCLTAKIHAQLRTGDDQNLESALDQLYDTDPGGYSEFMYAIEAAIECSIFTRGNHTYDVLMLAVPMLTWSRFSIPSGLIAESVLSELRGQLQVQVLADDAQLALADCLFSPDQLPRGYHLTHELARKLWSTAVTGQRDLHMNPRQLPETGRFLSDTRYLLGGIAVPQGKPMFRWQQGTAGEHKGSNVSALQFSKEQILHAWQTHGTAVLLPLFQGCAFELLMPDGFFSAWRAADRLARPYSVRATVDFLETTLGISPDRLRAVIAPFYDQWLEEYRIGFTLKDRDSVLYGIIWGLVGDEDENTDSVAQIEAALRECGVTQTILLQEHFLLEYCEECGGPLFPNVNGEIVHAEFPEEGEVAPIHLH,not soluble
10,MQCCVQLVPFWDTSGVSTMFDYQVSKHPHFDEACRAFALRHNLVQLAERAGMNVQILRNKLNPAQPHLLTAPEIWLLTDLTEDSTLVDGFLAQIHCLPCVPINEVAKEKLPHYVMSATAEIGRVAAGAVSGDVKTSAGRRDAISSINSVTRLMALAAVSLQARLQANPAMASAVDTVTGLGASFGLL,not soluble
11,MSDGSDDDTNNDGNYCKNVSYNFLIQRLAEVSNRKCLLLPKKKNRVDYISIMQTAEFYPELVNSSPPLEPGFTSCEVFVVDKKVDKDTLHLDNFSPYHIGATRRTLERQHSYFYRVNESGNFVPAIKTNGTHILRILVSILGSCPALNRKIYRMVKIESQNKNCLPSLIVYTFEPGHEIPKPNAPAILRRQTSDEIQKILNIPGTSFSQAHSEAVLNRFYDDLPIRDEASDQKRARYSIESTSSTNNQLNEINSFVVPKFEGRQESEQLFRDVKVEQFEESAEISINNRALSPHIQPSKTSVVNRPNQQNRKFQNYDMFSAGVISTATVPAPMFHPHITPIADLKDDDGYDPEELTQRNKLASLYRLVDLFRWSQGIYNHITVRVSTDPDEILINAFGQLYSEVSASSLIKVDLDGTVIDGGSTNFGVNQAGYVLHSAIHNGRPEVKCVVHLHHPSVVAVSAQKCGLLPISQESMIVGDVGYHEYRGILIDEAERALLVRDLGDRNVMILRNHGFVVCGESIEHALSLTYHLIIACETQIRTVPGGNTDNVHFPAQSAIKQVYKVASQGGGGVNRQNGHVNSMQWKKGELEWQAYMRQLDAQGYVTGNVPN,not soluble
12,MSRNMFKLAHISDVHLGPLPRLSIQELFSKRITGFVNWHRNRRKHLFASTLDLLLDDIRTHRADHLAVTGDLVNLASGIEIRAAAAWLRALGDPADTSVVPGNHDAYVPGAYEKSMRAWYDYVRGDLAPPQWQEDRRIFPYLRVRDKVAIVGCSTAVATPPFAASGFFSARQARDTVNMLRAAGEAGLFRVVMIHHPPIRGATAFHKRMIGIRRFAAVISTGGAELVLHGHTHLNTLHWLRGQVQPVPVVGIASASQGPGSIKPPAAYNLFSIDGAPGAWELEHHHHHH,soluble
13,MSLSEKPCERVVLDTSVFTNPSVAAVFGDNATSALAQFVILARQVSPRMEFYMPPSVLGELHHFTDAEHLPGDLELVIKLRAPRRHDISVPGMFLYELIEDIRQRIDRGLRVAEKAVREVQPTSVDRTIRWLRDRYRDALRTGLLDSSEDLDVILLAVELDGAVASADRGLLQWAEKGGLRLIPPQRLRSILEHLIENGTAGEEGHHHHHH,soluble
14,MSRYCSECGKARKACLCPSIVALESAVELIILQHPTEQKRPLGTARILSLSLANCRLLVGEDFREHDELNQLLAEPDVDYYVLYPNEHAQECTKISLTTARKTRVILLDGTWKKAYKMWQINTQLHDLPSLHLPDECVGHYRIRKAPDDTALSTVEAGYHLLQQWQPERDFSPLLKVFDAMIQYQIDQMPEGVFERNYRQLEHHHHHH,not soluble
15,WTKKTLGSLFELKKGEMLEKELLAPDGKYEYFNGGIKASGRTNEFNTFKNTISIIIGGSCGYVRLADKDYFCGQSSCTLTVLDPLEIDLKFAYYALKSQEEKITSLASGTTIKNIRLSDLKDLPIPLVKSIQDQRTIAHALSVFDL,soluble
16,MSLEASLVKLSEQELTSLNYAFQQMRKPLQTINYDYAVWDRTYSYMKSNSASAKRYYEKHEYPDDTFKSLKVDGVFIFNRTNQPVFSKGFNHRNDIPLVFELTDFKQHPQNIALSPQTKQAHPPASKPLDSPDDVPSTHGVIATRYGPAIYSSTSILKSDRSGSQLGYLVFIRLIDEWFIAELSQYTAAGVEIAMADAADAQLARLGANTKLNKVTATSERLITNVDGKPLLKLVLYHTNEGHHHHHH,not soluble
